{
  "source": "paper PMC7731665",
  "about": "(Frontiers in Immunology, 2020)",
  "binders": {"B1": {"name": "FLAG-tagged PB4rev (antibody, V domains shown)", "VH": "QVQLQESGPGLVKPSETLSLTCTVSGGSISSYYWSWIRQPAGKGLEWIGRIYTSGSTNYNPSLKSRVTMSVDTSKNQFSLKLSSVTAADTAVYYCARESRGAVLTGDYYYYYYMDVWGKGTTVTVSS", "VL": "not shown", "notes": "as the heavy chain of m8; as the light chain of m8; also called PB4rev (FLAG); source: heavy chain vector FJ475055 with FLAG co-expressed with the light chain plasmid, purified with protein A; not shown: FLAG, C-terminal, kept"}},
  "biological_target": "T1, vimentin in lupus nephritis kidney tissue (Homo sapiens, UniProt P08670)",
  "T1 construct": "endogenous vimentin of human lupus nephritis biopsies; vimentin-rich zones marked with the anti-vimentin antibody V9; also called Vim^hi zones of inflamed lupus kidney; source: endogenous, paraffin embedded human lupus kidney biopsies",
  "T1 sequence (P08670 whole entry)": "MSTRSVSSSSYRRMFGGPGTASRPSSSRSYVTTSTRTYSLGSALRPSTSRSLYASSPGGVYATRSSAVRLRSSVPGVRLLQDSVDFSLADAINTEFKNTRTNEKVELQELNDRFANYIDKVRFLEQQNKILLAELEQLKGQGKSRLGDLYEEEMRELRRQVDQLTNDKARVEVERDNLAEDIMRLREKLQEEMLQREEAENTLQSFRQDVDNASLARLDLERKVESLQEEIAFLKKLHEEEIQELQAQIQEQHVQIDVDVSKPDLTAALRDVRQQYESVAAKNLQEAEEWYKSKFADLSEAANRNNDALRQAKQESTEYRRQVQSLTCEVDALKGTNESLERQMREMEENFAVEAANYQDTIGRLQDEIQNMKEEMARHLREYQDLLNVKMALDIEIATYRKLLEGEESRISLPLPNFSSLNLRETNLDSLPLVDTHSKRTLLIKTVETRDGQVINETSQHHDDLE",
  "test": "immunostaining of cells or tissue; paraffin embedded lupus nephritis kidney biopsies, FLAG-tagged human IgG1 mAbs detected with rat anti-FLAG and Alexa Fluor 488 anti-rat IgG, co-stained with V9 and Hoechst; confocal microscopy, per field of view",
  "conditions": "one partner purified",
  "data": [
    {"binder": "B1", "values": [
      {"measurement": "binding result", "result": "binds"}
    ]}
  ]
}
